Experimental data as given in US11130803B2, “Isoform-selective TGFβ1 inhibitors and use thereof” (Scholar Rock, Inc., priority 2018, dated 2021).
Like-named read-outs stand apart in the source and are kept apart here.

Tests used:
[1] = test system: mouse models of injury, Marfan's syndrome, and muscular dystrophy; conditions: in vivo; cited from earlier work
[2] = target: T1, recombinant human GARP-proTGFβ1 complex (Homo sapiens, UniProt P01137); test: Octet (Biolayer Interferometry) in vitro kinetic binding; conditions: in M
T1 construct: made in house
Source text: (§1) Biolayer Interferometry (BLI):BLI is a label-free technology for optically measuring biomolecular interactions, e.g., between a ligand immobilized on the biosensor tip surface and an analyte in solution. BLI provides the ability to monitor binding specificity, rates of association and dissociation, or concentration, with precision and accuracy. BLI platform instruments are commercially available, for example, from ForteBio and are commonly referred to as the Octet® System.
(§2) BLI-based binding assays are widely used in the art for measuring affinities and kinetics of antibodies to antigens. It is a label-free technology in which biomolecular interactions are analyzed on the basis of optical interference. One of the proteins, for example, an antibody being tested, can be immobilized on the biosensor tip. When the other protein in solution, for example, an antigen, becomes bound to the immobilized antibody, it causes a shift in the interference pattern, which can be measured in real-time. This allows the monitoring of binding specificity, rates of association and dissociation, as well as concentration dependency. […] Due to its ease of use and fast results, BLI-based assays such as the Octet® system (available from ForteBio/Molecular Devices, Fremont Calif.), are particularly convenient when used as an initial screening method to identify and separate a pool of “binders” from a pool of “non-binders” or “weak binders” in the screening process.
(§3) Table 8 below provides non-limiting examples of high-affinity, context-independent proTGFβ1 antibodies encompassed by the present invention. The table provides representative results from in vitro binding assays, as measured by Octet®.
(§4) Column (A) of the table lists monoclonal antibodies with discrete amino acid sequences. […] Columns (B), (D), (E) and (F) provide affinities of each of the listed antibodies, measured in KD. […] Average KD values of (B) and (C) are shown in the corresponding column (D), which collectively represents affinities of the antibodies to ECM- or matrix-associated proTGFβ1 complexes. Similarly, Average KD values of (E) and (F) are shown in the corresponding column (G), which collectively represents affinities of the antibodies to cell-surface or cell-associated proTGFβ1 complexes. Finally, relative ratios between the average KD values from columns (D) and (G) are expressed as “fold bias” in column (H). Thus, the greater the number of column (H) is, the greater bias exists for the particular antibody, when comparing binding preferences of the antibody for matrix-associated complexes and cell-surface complexes. This is one way of quantitatively representing and comparing inherent bias of antibodies to their target complexes. Such analyses may be useful in guiding the selection process for a candidate antibody for particular therapeutic use.
(§5) In some embodiments, the binding affinity of an antibody, or antigen binding portion thereof, to an antigen (e.g., protein complex), such as presenting molecule-proTGFβ1 complexes, is determined using an Octet assay. In some embodiments, an Octet assay is an assay that determines one or more a kinetic parameters indicative of binding between an antibody and antigen. In some embodiments, an Octet® system (ForteBio, Menlo Park, Calif.) is used to determine the binding affinity of an antibody, or antigen binding portion thereof, to presenting molecule-proTGFβ1 complexes. For example, binding affinities of antibodies may be determined using the fortéBio Octet QKe dip and read label free assay system utilizing bio-layer interferometry. In some embodiments, antigens are immobilized to biosensors (e.g., streptavidin-coated biosensors) and the antibodies and complexes (e.g., biotinylated presenting molecule-proTGFβ1 complexes) are presented in solution at high concentration ([…]) to measure binding interactions. […]

[3] = target: T2, recombinant human LRRC33-proTGFβ1 complex (Homo sapiens, UniProt P01137); test: as above; conditions: in M
T2 construct: made in house
Source text: as §1, §2, §3, §4, §5

[4] = target: T3, recombinant human LTBP1-proTGFβ1 complex (Homo sapiens, UniProt P01137); test: as above; conditions: in M
T3 construct: made in house; host or cells: Expi293F cells, transient co-transfection
Source text: as §1, §2, §3, §4, §5

[5] = target: T4, recombinant human LTBP3-proTGFβ1 complex (Homo sapiens, UniProt P01137); test: as above; conditions: in M
T4 construct: made in house; host or cells: Expi293F cells, transient co-transfection
Source text: as §1, §2, §3, §4, §5

[6] = test system: matrix-associated (LTBP1/LTBP3) and cell-associated (GARP/LRRC33) proTGFβ1 complexes; test: Octet: average KD and fold bias, matrix- vs cell-associated complexes; type: binding, human; conditions: for Kd: average KD of (E) and (F), cell-associated complexes, read-out: (G) Cell AVRG; for (H) G/D (fold bias): ratio of average KD cell-associated / matrix-associated
Source text: Column (A) of the table lists monoclonal antibodies with discrete amino acid sequences. […] Columns (B), (D), (E) and (F) provide affinities of each of the listed antibodies, measured in KD. […] Average KD values of (B) and (C) are shown in the corresponding column (D), which collectively represents affinities of the antibodies to ECM- or matrix-associated proTGFβ1 complexes. Similarly, Average KD values of (E) and (F) are shown in the corresponding column (G), which collectively represents affinities of the antibodies to cell-surface or cell-associated proTGFβ1 complexes. Finally, relative ratios between the average KD values from columns (D) and (G) are expressed as “fold bias” in column (H). […] This is one way of quantitatively representing and comparing inherent bias of antibodies to their target complexes.
Average KD values between the two matrix-associated and cell-associated complexes are calculated, respectively (see columns (D) and (G)). These average KD values can then be used to ask whether bias in binding activities exists between complexes associated with matrix vs. complexes associated with cell surface (e.g., immune cells). Bias may be expressed as “fold-difference” in the average KD values, as illustrated in Table 8.

[7] = test system: matrix-associated (LTBP1/LTBP3) and cell-associated (GARP/LRRC33) proTGFβ1 complexes; test: as above; type: binding, human; conditions: average KD of (B) and (C), read-out: (D) ECM AVRG
[8] = test system: MBT2 tumors, intratumoral immune cells; test: MBT2 tumor immune contexture (flow cytometry, IHC, qPCR); conditions: mouse, in vivo
Source text: To study the immune effects of anti-PD-1 or AB6-mIgG1 treatment as single agents or in combination, MBT-2 tumors were harvested from mice 10 days after treatment initiation and then subjected to immunohistochemical and flow cytometry analyses of select immune cell markers. […] The relevance of this increase in Treg cells is unclear given the significant anti-tumor effects observed with combination treatment. […] This appears to be due to selective reduction in CD11b+CD206+ and CD11b+Gr1+ subpopulations, which correspond to immunosuppressive M2-like macrophages and myeloid-derived suppressor cells (MDSC), respectively. Collectively, the representation of these two populations of cells is reduced from an average of 47% of the CD45+ cell population to 14% after combination treatment (FIG. 34B).
Each study group contained 12 mice with MBT2 tumors as described herein. Ab6-treatment group received the antibody weekly, on day 1 and day 8, at 10 mg/kg. […]
Tumor-associated immune cell subsets were also analyzed by tumor flow cytometry in MBT-2 tumors. […] Flow cytometry was performed on a Attune NxT (ThermoFisher) and analyzed with FlowJo (BD Bioscience).
For immunohistochemical analysis, tumors from six animals were cut in halves and fixed. […] FIG. 36E provides the quantitation of the IHC data, shown as % of CD8-positive cells of total nuclei. […]

T3 sequence (P01137 30-390): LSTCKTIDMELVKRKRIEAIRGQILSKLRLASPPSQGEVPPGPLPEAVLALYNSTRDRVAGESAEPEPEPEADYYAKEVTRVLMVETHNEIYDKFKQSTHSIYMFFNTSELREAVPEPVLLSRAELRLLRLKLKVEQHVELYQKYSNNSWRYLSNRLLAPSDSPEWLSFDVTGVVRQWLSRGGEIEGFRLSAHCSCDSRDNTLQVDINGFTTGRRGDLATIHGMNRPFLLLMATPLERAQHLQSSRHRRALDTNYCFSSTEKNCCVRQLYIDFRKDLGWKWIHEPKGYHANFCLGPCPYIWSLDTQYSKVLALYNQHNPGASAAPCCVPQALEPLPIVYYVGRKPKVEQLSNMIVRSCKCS
T3 sequence (Q14766 873-1507 partner): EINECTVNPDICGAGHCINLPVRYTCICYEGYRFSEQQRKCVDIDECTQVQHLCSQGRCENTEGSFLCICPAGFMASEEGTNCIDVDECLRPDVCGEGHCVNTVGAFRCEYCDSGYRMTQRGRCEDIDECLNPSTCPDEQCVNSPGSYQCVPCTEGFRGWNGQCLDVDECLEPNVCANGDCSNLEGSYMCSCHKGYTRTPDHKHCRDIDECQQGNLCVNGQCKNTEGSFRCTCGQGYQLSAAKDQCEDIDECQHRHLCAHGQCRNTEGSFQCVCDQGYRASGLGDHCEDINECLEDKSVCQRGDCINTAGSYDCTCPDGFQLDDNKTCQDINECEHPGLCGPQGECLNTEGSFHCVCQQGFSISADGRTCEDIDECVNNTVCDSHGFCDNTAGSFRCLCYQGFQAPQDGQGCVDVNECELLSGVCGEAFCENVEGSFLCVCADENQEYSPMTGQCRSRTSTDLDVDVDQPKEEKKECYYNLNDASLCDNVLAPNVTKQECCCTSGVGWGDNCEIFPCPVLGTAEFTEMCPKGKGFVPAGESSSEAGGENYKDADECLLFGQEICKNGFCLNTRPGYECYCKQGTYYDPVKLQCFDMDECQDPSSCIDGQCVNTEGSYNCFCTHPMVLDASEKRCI
T1 sequence (P01137 30-390): as the sequence (P01137 30-390) above
T1 sequence (Q14392 20-627 partner limits assumed): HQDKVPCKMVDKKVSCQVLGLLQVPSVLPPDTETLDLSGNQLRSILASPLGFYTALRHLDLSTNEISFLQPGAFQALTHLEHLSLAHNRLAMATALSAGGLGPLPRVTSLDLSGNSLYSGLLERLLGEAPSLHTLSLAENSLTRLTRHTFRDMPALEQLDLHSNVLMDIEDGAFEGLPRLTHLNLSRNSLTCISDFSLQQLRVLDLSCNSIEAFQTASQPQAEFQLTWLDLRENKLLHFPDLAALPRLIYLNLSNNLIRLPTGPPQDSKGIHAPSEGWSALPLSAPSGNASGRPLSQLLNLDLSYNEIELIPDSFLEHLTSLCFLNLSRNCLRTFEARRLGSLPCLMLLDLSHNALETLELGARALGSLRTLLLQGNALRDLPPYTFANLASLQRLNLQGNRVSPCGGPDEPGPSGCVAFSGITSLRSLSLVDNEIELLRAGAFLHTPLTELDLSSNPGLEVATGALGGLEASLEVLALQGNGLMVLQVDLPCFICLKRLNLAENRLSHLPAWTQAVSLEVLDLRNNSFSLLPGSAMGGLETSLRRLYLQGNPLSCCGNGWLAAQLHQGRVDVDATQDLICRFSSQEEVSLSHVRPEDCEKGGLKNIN
T4 sequence (P01137 30-390): as the sequence (P01137 30-390) above
T4 sequence (Q9NS15 866-1039 partner limits assumed): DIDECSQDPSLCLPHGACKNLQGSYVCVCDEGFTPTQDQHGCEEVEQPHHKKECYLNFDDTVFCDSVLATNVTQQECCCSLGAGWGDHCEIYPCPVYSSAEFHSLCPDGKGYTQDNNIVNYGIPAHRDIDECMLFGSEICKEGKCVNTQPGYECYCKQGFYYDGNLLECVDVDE
T2 sequence (P01137 30-390): as the sequence (P01137 30-390) above
T2 sequence (Q86YC3 19-650 partner limits assumed): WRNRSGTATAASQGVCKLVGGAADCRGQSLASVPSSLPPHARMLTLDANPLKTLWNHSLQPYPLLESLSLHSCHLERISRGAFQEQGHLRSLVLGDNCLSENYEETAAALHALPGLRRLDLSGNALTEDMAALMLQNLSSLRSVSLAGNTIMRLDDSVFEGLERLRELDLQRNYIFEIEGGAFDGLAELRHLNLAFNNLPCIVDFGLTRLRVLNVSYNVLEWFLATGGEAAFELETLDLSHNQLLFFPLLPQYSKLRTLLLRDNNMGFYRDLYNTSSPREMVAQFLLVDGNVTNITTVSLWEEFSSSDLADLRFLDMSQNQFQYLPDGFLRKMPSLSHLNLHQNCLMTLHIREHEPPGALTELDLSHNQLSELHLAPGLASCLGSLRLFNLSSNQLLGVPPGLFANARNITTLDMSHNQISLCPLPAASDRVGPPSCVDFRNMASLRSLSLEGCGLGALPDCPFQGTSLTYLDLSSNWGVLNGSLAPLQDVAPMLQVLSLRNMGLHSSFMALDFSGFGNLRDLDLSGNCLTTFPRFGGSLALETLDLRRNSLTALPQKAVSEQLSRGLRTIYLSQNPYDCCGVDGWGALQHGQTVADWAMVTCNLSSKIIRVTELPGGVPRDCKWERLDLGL

Molecule | muscle pathology and fibrosis [1] | (E) hGARP, Cell-associated proTGFb1 (KD) [2] | (F) hLRRC33, Cell-associated proTGFb1 (KD) [3] | (B) hLTBP1, Matrix-associated proTGFb1 (KD) [4] | (C) hLTBP3, Matrix-associated proTGFb1 (KD) [5] | Kd [6] [nM] | (H) G/D (fold bias) [6] [fold] | Kd [7] [nM] | phospho-Smad3 staining at tumor vascular endothelium (IHC) [8]
CCCCc1nc(Cl)c(CO)n1Cc1ccc(-c2ccccc2-c2nn[nH]n2)cc1 [losartan] | effective in improving muscle pathology and reducing fibrosis | – | – | – | – | – | – | – | –
Cc1ccc(C(=O)Nc2ccc(S(=O)(=O)O)c3cc(S(=O)(=O)O)cc(S(=O)(=O)O)c23)cc1NC(=O)c1cccc(NC(=O)Nc2cccc(C(=O)Nc3cc(C(=O)Nc4ccc(S(=O)(=O)O)c5cc(S(=O)(=O)O)cc(S(=O)(=O)O)c45)ccc3C)c2)c1 [suramin] | effective in improving muscle pathology and reducing fibrosis | – | – | – | – | – | – | – | –
Ab16: monoclonal antibody; VH SEQ ID NO: 247, VL SEQ ID NO: 241 (antibody, V domains shown) VH: EVQLLESGGGLVQPGGSLRLSCAASGFTFSNYAMSWVRQAPGKGLEWVSAISGSGFTTYYADSVKGRFTISRDNSKNTLYLQMNSLRAEDTAVYYCARVSSGHWDFDYWGQGTLVTVSS VL: DIQLTQSPSSLSASVGDRVTITCRASQSISSYLNWYQQKPGKAPKLLIYAASNLQSGVPSRFSGSGSGTDFTLTISSLQPEDFATYYCQQTYTVPLTFGGGTKVEIK | – | 4.16E−09 | 6.31E−10 | 1.81E−10 | 1.32E−10 | 2.4 | 15.307 | 0.157 | –
Ab18: monoclonal antibody; VH SEQ ID NO: 249, VL SEQ ID NO: 241 (antibody, V domains shown) VH: QVQLVESGGGVVQPGRSLRLSCAASGFTFSDYAMVWVRQAPGKGLEWVSAISGSGAATYFADSVKGRFTISRDNSKNTLYLQMNSLRAEDTAVYYCATVSSGHWDFDYWGQGTLVTVSS VL: DIQLTQSPSSLSASVGDRVTITCRASQSISSYLNWYQQKPGKAPKLLIYAASNLQSGVPSRFSGSGSGTDFTLTISSLQPEDFATYYCQQTYTVPLTFGGGTKVEIK | – | 1.15E−08 | 1.02E−09 | 3.12E−10 | 2.57E−10 | 6.26 | 22.00 | 0.284 | –
Ab17: monoclonal antibody; VH SEQ ID NO: 248, VL SEQ ID NO: 241 (antibody, V domains shown) VH: EVQLLESGGGVVQPGGSLRLSCAASGFTFSSFAMTWVRQAPGKGLEWVSAISGSGAATYFADSVKGRFTISRDNSKNTLYLQMNSLRAEDTAVYYCARVSSGHWDFDYWGQGTLVTVSS VL: DIQLTQSPSSLSASVGDRVTITCRASQSISSYLNWYQQKPGKAPKLLIYAASNLQSGVPSRFSGSGSGTDFTLTISSLQPEDFATYYCQQTYTVPLTFGGGTKVEIK | – | 8.62E−09 | 6.58E−10 | 1.74E−10 | 2.08E−10 | 4.64 | 24.288 | 0.191 | –
Ab6-mIgG1: chimeric antibody with the human V domains of Ab6 fused to mouse IgG1/kappa constant domains (protein) heavy chain: EVQLVESGGGLVQPGGSLRLSCTASGFTFSSFSMDWVRQAPGKGLEWVSYISPSADTIYYADSVKGRFTISRDNAKNTLYLQMNSLRAEDTAVYYCARGVLDYGDMLMPWGQGTLVTVSS light chain: DIQMTQSPSSLSASVGDRVTITCQASQDITNYLNWYQQKPGKAPKLLIYDASNLETGVPSRFSGSGSGTDFTFTISSLQPEDIATYYCQQADNHPPWTFGGGTKVEIK | – | – | – | – | – | – | – | – | much diminished
